Target: T1, biotinylated CD59 (Homo sapiens, UniProt P13987)
T1 construct: Recombinant soluble human CD59 with an additional C-terminal cysteine residue
T1 sequence (P13987 26-102 limits assumed): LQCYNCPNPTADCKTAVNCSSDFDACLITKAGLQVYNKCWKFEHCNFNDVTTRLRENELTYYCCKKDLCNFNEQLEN
Assay: mRNA-display cyclic peptide screen against CD59-biotin, NGS abundance after 6th selection round
Details: for Counts (raw counts for peptide sequence), Seq I: NGS sample Seq I; for Counts (raw counts for peptide sequence), Seq I / Counts (raw counts for peptide sequence), Seq II / Counts Seq I / Counts Seq II: sheet R6 (6th selection round); for Counts (raw counts for peptide sequence), Seq II: NGS sample Seq II; for Percentage of the pool, averaged across the two sequencing samples: average of Seq I and Seq II; for Percentage of the pool, averaged across the two sequencing samples / Percentage of the pool, Seq I / Percentage of the pool, Seq II / Percentage Seq I / Percentage Seq II / Percentage Average: sheet R6; for Percentage of the pool, Seq I: counts normalised by total counts of NGS sample Seq I; for Percentage of the pool, Seq II: counts normalised by total counts of NGS sample Seq II; for Percentage Seq I: counts normalised by total counts of sample Seq I; for Percentage Seq I / Percentage Seq II: percentage of the pool; for Percentage Seq II: counts normalised by total counts of sample Seq II; for Percentage Average: percentage of the pool averaged across the two sequencing samples; for Counts Seq I / Counts Seq II: raw NGS counts of peptide sequence; for Counts Seq I: sequencing sample Seq I; for Counts Seq II: sequencing sample Seq II
Excerpt: To discover novel non‐protein CD59 ligands, we screened a library of 10^12 cyclic peptides against CD59 using mRNA‐display (Figure 2a).^[ [23], [24], [25], [26], [27], [28], [29] ^] Briefly, an mRNA library was designed in which the start codon was reprogrammed from Met to N‐chloroacetyl‐D‐Tyr (ClAc‐D‐Tyr), followed by 10–12 randomly encoded natural amino acids, a Cys residue, a (GlySer)3 linker, and a stop codon. […] The total library diversity was 1.51 × 10^13 molecules, comprising 5.02 × 10^12 molecules of each macrocycle size, covering a subset of the maximum theoretical diversity of this library design. Following in vitro translation, ClAc‐D‐Tyr spontaneously reacts with either the C‐terminal Cys or a Cys in the random region, yielding macrocyclic thioether peptides. Hits from the library were identified through iterative enrichment and amplification against biotinylated CD59, then immobilized on streptavidin beads. Fifteen hit sequences (CP‐01 to CP‐15), enriched with abundance >1% relative to the total pool of recovered binders after the 6th round of selection, were synthesized by solid phase peptide synthesis (SPPS), without the (Gly‐Ser)3 linker.
Figure 2 Discovery of macrocyclic peptide ligands with nanomolar CD59 affinity using mRNA display. a) The selection process. PCR = polymerase chain reaction, SPPS = solid phase peptide synthesis. b) Table showing details of the peptides with nanomolar affinity for CD59 as well as the binding affinity of the lead inhibitor of CD59, rILYd4. K D values are presented as the average of three technical replicates ± SEM. Structures of all peptides and SPR sensograms are presented in Figures S1 and S2. *indicates the presented sequences are the variable regions of these cyclic peptides; each is flanked by an N‐terminal Ac‐D‐Tyr cyclized to a C‐terminal Cys. R6 abundance (%) is defined as (the given number of NGS reads for a given sequence/the total number of reads of unique sequences observed in NGS)*100 following the 6th selection round. c) Representative sensogram of the interaction between CP‐06 with immobilized CD59 by SPR analysis. Inset showing the equilibrium binding curve of CP‐06 to CD‐59. Below in the box are the association and dissociation rate constants of CP‐06. Concentrations are plotted in descending order from 800‐3.1 nM in line with their position on the legend. […] (nM)'; the box with Kon/Koff has no label of its own / ILYd4: the label may be cut off at the left edge (possibly 'rILYd4') / CP-02, KD: 15.3 ± 0.2, small print, 3 or 8 uncertain / CP-03, KD: 23.4 ± 0.7, small print / CP-06, KD: 11.3 ± 0.0, small print, 3 or 8 uncertain / CP-13, KD: 10.8 ± 0.7, small print, 8 or 6 uncertain / ILYd4, KD: 48.3 ± 1.1, small print, 8 and 3 uncertain
The mRNA-display cyclic peptide screen was performed against CD59-biotin by T.E.M: DNA templates for transcription were generated by PCR in a similar manner to that previously described.^2 RNA oligonucleotides were transcribed from the DNA templates using T7 RNA polymerase and purified by phenol/chloroform extraction followed by ethanol precipitation. Oligonucleotide concentrations were determined spectroscopically by absorbance at 260 nm. In the first selection round a 1:1:1 molar ratio of NNK10/NNK11/NNK12 was used. The procedure for selection rounds 2-6 is described below; round 1 was conducted at twice the scale.
RNA encoding for the peptide library ligated to a puromycin-modified oligonucleotide was […] (final [RNA] = 2.5 µM) using a customised PURE express kit (lacking release factor 1 and methionine, supplemented with […] initiator tRNA acylated with N-chloroacetyl-d-tyrosine prepared as previously described)^3 in a final volume of 5.6 µL for 1 hour at 37 °C.
This mixture was incubated at 42 °C for 1 hour before being diluted to 500 µL with PBS (10 mM Na-PO4 pH 7.4, 2.7 mM KCl, 137 mM NaCl) and 0.5 µL taken for subsequent use in qPCR. […]

In the case of HCWVRGSRNHT, the “Counts (raw counts for peptide sequence), Seq I” value is reported as 54, the “Counts (raw counts for peptide sequence), Seq II” value is reported as 5 and the “Percentage of the pool, averaged across the two sequencing samples” value is reported as 0.012%. The “Percentage of the pool, Seq I” value was 0.012% and the “Percentage of the pool, Seq II” value was 0.012%.
For AVAGSRHWAWG, the “Percentage Seq I” value was 0.039%, the “Percentage Seq II” value was 0.039% and the “Percentage Average” value was 0.039%. For the same sequence, the “Counts Seq I” value was 171 and the “Counts Seq II” value was 17.
In the case of CFVNRLRSAESR, the “Percentage Seq I” value is reported as 0.141%, the “Percentage Seq II” value is reported as 0.144% and the “Percentage Average” value is reported as 0.143%. For the same sequence, the “Counts Seq I” value was 618 and the “Counts Seq II” value was 62.
In the case of SRGGKDWSRG, the “Percentage Seq I” value is reported as 0.235%, the “Percentage Seq II” value is reported as 0.251% and the “Percentage Average” value is reported as 0.243%. For the same sequence, the “Counts Seq I” value was 1026 and the “Counts Seq II” value was 108.
In the case of SSFREYNHLPCT, the “Percentage Seq I” value is reported as 0.598%, the “Percentage Seq II” value is reported as 0.694% and the “Percentage Average” value is reported as 0.646%. For the same sequence, the “Counts Seq I” value was 2617 and the “Counts Seq II” value was 299.
ILGSRDTIKYW was tested, and the “Percentage Seq I” value was 0.118%, the “Percentage Seq II” value was 0.167% and the “Percentage Average” value was 0.142%. For the same sequence, the “Counts Seq I” value was 515 and the “Counts Seq II” value was 72.
FVTGNRDNTRG was tested, and the “Counts (raw counts for peptide sequence), Seq I” value was 80, the “Counts (raw counts for peptide sequence), Seq II” value was 6 and the “Percentage of the pool, averaged across the two sequencing samples” value was 0.016%. The “Percentage of the pool, Seq I” value was 0.018% and the “Percentage of the pool, Seq II” value was 0.014%.
For LVTGNRDHTRG, the “Percentage Seq I” value was 0.023%, the “Percentage Seq II” value was 0.030% and the “Percentage Average” value was 0.027%. The “Counts Seq I” value was 100 and the “Counts Seq II” value was 13.
With WVYGSRYWRSI the “Percentage Seq I” value was 0.030%, the “Percentage Seq II” value was 0.014% and the “Percentage Average” value was 0.022%. For the same sequence, the “Counts Seq I” value was 132 and the “Counts Seq II” value was 6.
With CFSARAILDGGW the “Percentage Seq I” value was 0.249%, the “Percentage Seq II” value was 0.248% and the “Percentage Average” value was 0.249%. For the same sequence, the “Counts Seq I” value was 1089 and the “Counts Seq II” value was 107.
For LWGTRSFTLVRS, the “Counts (raw counts for peptide sequence), Seq I” value was 64, the “Counts (raw counts for peptide sequence), Seq II” value was 5 and the “Percentage of the pool, averaged across the two sequencing samples” value was 0.013%. The “Percentage of the pool, Seq I” value was 0.015% and the “Percentage of the pool, Seq II” value was 0.012%.
GYLNECWYGLS was tested, and the “Percentage Seq I” value was 0.101%, the “Percentage Seq II” value was 0.081% and the “Percentage Average” value was 0.091%. For the same sequence, the “Counts Seq I” value was 441 and the “Counts Seq II” value was 35.
FVTGNRDRTRG was tested, and the “Percentage Seq I” value was 0.019%, the “Percentage Seq II” value was 0.026% and the “Percentage Average” value was 0.022%. The “Counts Seq I” value was 81 and the “Counts Seq II” value was 11.
For CAWGNRHIAYY, the “Percentage Seq I” value was 0.183%, the “Percentage Seq II” value was 0.195% and the “Percentage Average” value was 0.189%. For the same sequence, the “Counts Seq I” value was 800 and the “Counts Seq II” value was 84.
For DSRNQCHTWKT, the “Counts (raw counts for peptide sequence), Seq I” value was 87, the “Counts (raw counts for peptide sequence), Seq II” value was 6 and the “Percentage of the pool, averaged across the two sequencing samples” value was 0.017%. For the same sequence, the “Percentage of the pool, Seq I” value was 0.020% and the “Percentage of the pool, Seq II” value was 0.014%.
